Results reported in patent US20220177596A1 (Bristol-Myers Squibb, published 2022).
Residue numbers refer to the chain shown, from its start.

B1: Y1238 (antibody, V domains shown)
VH: QVQLQQSGAELVRPGTSVKVSCKASGYAFTNYLIEWVKQRPGQGLEWIGVINPGSGGTNYNEKFKGKATLTADKSSSTAYMQLSSLTSDDSAVYFCARSQLGRRFDYWGQGTTLTVSS
VL: DIVMTQSHKFMSTSVGDRVSITCKASQDVRTGVAWYQQKPGQSPKLLIYSASYRNTGVPDRFTGSRSGTDFTFTISSVQAEDLAVYYCQQHYSPPYTFGGGTKLEIK
B2: Y1238-IgG1.3f (antibody)
heavy: QVQLQQSGAELVRPGTSVKVSCKASGYAFTNYLIEWVKQRPGQGLEWIGVINPGSGGTNYNEKFKGKATLTADKSSSTAYMQLSSLTSDDSAVYFCARSQLGRRFDYWGQGTTLTVSSASTKGPSVFPLAPSSKSTSGGTAALGCLVKDYFPEPVTVSWNSGALTSGVHTFPAVLQSSGLYSLSSVVTVPSSSLGTQTYICNVNHKPSNTKVDKRVEPKSCDKTHTCPPCPAPEAEGAPSVFLFPPKPKDTLMISRTPEVTCVVVDVSHEDPEVKFNWYVDGVEVHNAKTKPREEQYNSTYRVVSVLTVLHQDWLNGKEYKCKVSNKALPAPIEKTISKAKGQPREPQVYTLPPSREEMTKNQVSLTCLVKGFYPSDIAVEWESNGQPENNYKTTPPVLDSDGSFFLYSKLTVDKSRWQQGNVFSCSVMHEALHNHYTQKSLSLSPGK
light: DIVMTQSHKFMSTSVGDRVSITCKASQDVRTGVAWYQQKPGQSPKLLIYSASYRNTGVPDRFTGSRSGTDFTFTISSVQAEDLAVYYCQQHYSPPYTFGGGTKLEIKRTVAAPSVFIFPPSDEQLKSGTASVVCLLNNFYPREAKVQWKVDNALQSGNSQESVTEQDSKDSTYSLSSTLTLSKADYEKHKVYACEVTHQGLSSPVTKSFNRGEC
notes: Chimeric mouse/human anti-human CD40; also called Y1238-hIgG1.3f; chimeric Y1238 IgG1.3f
B3: 5F11-45-IgG1.3f (antibody)
heavy: QVQLVQSGAEVKKPGSSVKVSCKASGYTFTDLSMHWVRQAPGQGLEWMGYITPSSGYTAYNQKFKGKTTLTADKSTSTAYMELSSLRSEDTAVYYCARLILQRGAYWGQGTLVTVSSASTKGPSVFPLAPSSKSTSGGTAALGCLVKDYFPEPVTVSWNSGALTSGVHTFPAVLQSSGLYSLSSVVTVPSSSLGTQTYICNVNHKPSNTKVDKRVEPKSCDKTHTCPPCPAPEAEGAPSVFLFPPKPKDTLMISRTPEVTCVVVDVSHEDPEVKFNWYVDGVEVHNAKTKPREEQYNSTYRVVSVLTVLHQDWLNGKEYKCKVSNKALPAPIEKTISKAKGQPREPQVYTLPPSREEMTKNQVSLTCLVKGFYPSDIAVEWESNGQPENNYKTTPPVLDSDGSFFLYSKLTVDKSRWQQGNVFSCSVMHEALHNHYTQKSLSLSPGK
light: DIVLTQSPDSLAVSLGERATINCRASKNVDSYGNSFMHWYQQKPGQPPKLLIYRASNLESGVPDRFSGSGSGTDFTLTISSLQAEDVAVYYCQQSNEDPLTFGQGTKLEIKRTVAAPSVFIFPPSDEQLKSGTASVVCLLNNFYPREAKVQWKVDNALQSGNSQESVTEQDSKDSTYSLSSTLTLSKADYEKHKVYACEVTHQGLSSPVTKSFNRGEC
B4: humanized Y1238 hz35 (hz-HC7 / hz-LC5), IgG1.3f (antibody, V domains shown)
VH: QVQLVQSGAEVVKPGASVKVSCKASGYAFTNYLIEWVRQRPGQGLEWMGVINPGSGGTNYNEKFKGRVTMTADKSSSTAYMQLSRLRSDDTAVYFCARSQLGRRFDYWGQGTLVTVSS
VL: DIQMTQSPSSLSASVGDRVTITCKASQDVRTGVAWYQQKPGQAPKLLIYSASYRNTGVPSRFSGSRSGTDFTFTISSLQPEDIAVYYCQQHYSPPYTFGGGTKVEIK
notes: IgG1.3f heavy constant, common CL; expression supernatant; also called Sup 35
B5: humanized Y1238 hz49 (hz-HC10 / hz-LC4), IgG1.3f (antibody, V domains shown)
VH: B4 VH with V12K, A72R, S76I, Q82E, F95Y
VL: B4 VL with A43S, P80A
notes: IgG1.3f heavy constant, common CL; expression supernatant; also called Sup 49
B6: humanized Y1238 hz42 (hz-HC9 / hz-LC2), IgG1.3f (antibody, V domains shown)
VH: B4 VH with M70L, L113T
VL: B4 VL with Q42K, V85T
notes: IgG1.3f heavy constant, common CL; expression supernatant; also called Sup 42
B7: humanized Y1238 hz46 (hz-HC10 / hz-LC1), IgG1.3f (antibody, V domains shown)
VH: B4 VH with V12K, A72R, S76I, Q82E, F95Y
VL: B4 VL with Q42K, R66G, V85T
notes: IgG1.3f heavy constant, common CL; expression supernatant; also called Sup 46
B8: humanized Y1238 hz37 (hz-HC8 / hz-LC2), IgG1.3f (antibody, V domains shown)
VH: B4 VH with M70L
VL: B4 VL with Q42K, V85T
notes: IgG1.3f heavy constant, common CL; expression supernatant; also called Sup 37
B9: humanized Y1238 hz51 (hz-HC11 / hz-LC1), IgG1.3f (antibody, V domains shown)
VH: B4 VH with V12K, A72R, Q82E
VL: B4 VL with Q42K, R66G, V85T
notes: IgG1.3f heavy constant, common CL; expression supernatant; also called Sup 51
B10: humanized Y1238 hz38 (hz-HC8 / hz-LC3), IgG1.3f (antibody, V domains shown)
VH: B4 VH with M70L
VL: B4 VL with A43S
notes: IgG1.3f heavy constant, common CL; expression supernatant; also called Sup 38
B11: humanized Y1238 hz41 (hz-HC9 / hz-LC1), IgG1.3f (antibody, V domains shown)
VH: B4 VH with M70L, L113T
VL: B4 VL with Q42K, R66G, V85T
notes: IgG1.3f heavy constant, common CL; expression supernatant; also called Sup 41
B12: humanized Y1238 hz47 (hz-HC10 / hz-LC2), IgG1.3f (antibody, V domains shown)
VH: B4 VH with V12K, A72R, S76I, Q82E, F95Y
VL: B4 VL with Q42K, V85T
notes: IgG1.3f heavy constant, common CL; expression supernatant; also called Sup 47
B13: humanized Y1238 hz54 (hz-HC11 / hz-LC4), IgG1.3f (antibody, V domains shown)
VH: B4 VH with V12K, A72R, Q82E
VL: B4 VL with A43S, P80A
notes: IgG1.3f heavy constant, common CL; expression supernatant; also called Sup 54
B14: humanized Y1238 hz50 (hz-HC10 / hz-LC5), IgG1.3f (antibody, V domains shown)
VH: B4 VH with V12K, A72R, S76I, Q82E, F95Y
VL: B4 VL
notes: IgG1.3f heavy constant, common CL; expression supernatant; also called Sup 50
B15: humanized Y1238 hz48 (hz-HC10 / hz-LC3), IgG1.3f (antibody, V domains shown)
VH: B4 VH with V12K, A72R, S76I, Q82E, F95Y
VL: B4 VL with A43S
notes: IgG1.3f heavy constant, common CL; expression supernatant; also called Sup 48
B16: humanized Y1238 hz53 (hz-HC11 / hz-LC3), IgG1.3f (antibody, V domains shown)
VH: B4 VH with V12K, A72R, Q82E
VL: B4 VL with A43S
notes: IgG1.3f heavy constant, common CL; expression supernatant; also called Sup 53
B17: humanized Y1238 hz43 (hz-HC9 / hz-LC3), IgG1.3f (antibody, V domains shown)
VH: B4 VH with M70L, L113T
VL: B4 VL with A43S
notes: IgG1.3f heavy constant, common CL; expression supernatant; also called Sup 43
B18: humanized Y1238 hz39 (hz-HC8 / hz-LC4), IgG1.3f (antibody, V domains shown)
VH: B4 VH with M70L
VL: B4 VL with A43S, P80A
notes: IgG1.3f heavy constant, common CL; expression supernatant; also called Sup 39
B19: humanized Y1238 hz44 (hz-HC9 / hz-LC4), IgG1.3f (antibody, V domains shown)
VH: B4 VH with M70L, L113T
VL: B4 VL with A43S, P80A
notes: IgG1.3f heavy constant, common CL; expression supernatant; also called Sup 44
B20: humanized Y1238 hz45 (hz-HC9 / hz-LC5), IgG1.3f (antibody, V domains shown)
VH: B4 VH with M70L, L113T
VL: B4 VL
notes: IgG1.3f heavy constant, common CL; expression supernatant; also called Sup 45
B21: humanized Y1238 hz55 (hz-HC11 / hz-LC5), IgG1.3f (antibody, V domains shown)
VH: B4 VH with V12K, A72R, Q82E
VL: B4 VL
notes: IgG1.3f heavy constant, common CL; expression supernatant; also called Sup 55
B22: humanized Y1238 hz40 (hz-HC8 / hz-LC5), IgG1.3f (antibody, V domains shown)
VH: B4 VH with M70L
VL: B4 VL
notes: IgG1.3f heavy constant, common CL; expression supernatant; also called Sup 40
B23: humanized Y1238 hz36 (hz-HC8 / hz-LC1), IgG1.3f (antibody, V domains shown)
VH: B4 VH with M70L
VL: B4 VL with Q42K, R66G, V85T
notes: IgG1.3f heavy constant, common CL; expression supernatant; also called Sup 36
B24: humanized Y1238 hz52 (hz-HC11 / hz-LC2), IgG1.3f (antibody, V domains shown)
VH: B4 VH with V12K, A72R, Q82E
VL: B4 VL with Q42K, V85T
notes: IgG1.3f heavy constant, common CL; expression supernatant; also called Sup 52

Molecular target: human CD40 on primary human cells (tonsillar B cells, immature dendritic cells) (human, UniProt P25942 21-277)
Assay: cell-based or functional assay

human CD40 on primary human cells (tonsillar B cells, immature dendritic cells), sequence (P25942 21-277 limits assumed): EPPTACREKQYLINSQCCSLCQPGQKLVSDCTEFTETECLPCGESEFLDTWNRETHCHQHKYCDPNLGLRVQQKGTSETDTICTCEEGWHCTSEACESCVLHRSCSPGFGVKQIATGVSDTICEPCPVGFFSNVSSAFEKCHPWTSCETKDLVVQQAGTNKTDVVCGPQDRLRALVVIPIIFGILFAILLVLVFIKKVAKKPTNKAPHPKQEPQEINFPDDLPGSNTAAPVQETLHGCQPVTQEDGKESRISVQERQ

Row | Binder | IC50 for inhibition of proliferation of B cells, CD40L Trimer [µg/mL] | IC50 for inhibition of proliferation of B cells, CHO CD40L [µg/mL]
1 | B1 | 0.0034 | 0.0199

Molecular target: T1, human-CD40 monomer (human, UniProt P25942 21-193, limits assumed)
T1 construct: also called hCD40-monomer; human-CD40-monomer protein
Assay: SPR, Ab captured on protein A, CD40 monomer analyte
Description: These chimeric antibodies were tested for CD40 and FcgR binding by SPR, as well as for iDC activation.

T1 sequence (P25942 21-193 limits assumed): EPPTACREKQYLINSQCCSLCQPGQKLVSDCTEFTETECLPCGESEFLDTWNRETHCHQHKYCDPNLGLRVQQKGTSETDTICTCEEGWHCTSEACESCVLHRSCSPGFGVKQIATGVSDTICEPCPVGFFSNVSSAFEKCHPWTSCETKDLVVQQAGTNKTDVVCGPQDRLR

Row | Binder | Kd [nM] | koff [s⁻¹] | kon [M⁻¹ s⁻¹]
2 | B2 | 2.1 | 0.00021 | 100000

Molecular target: T1, human-CD40 monomer
Assay: as above
Remark: another data set of the same source

Row | Binder | Kd [nM] | koff [s⁻¹] | kon [M⁻¹ s⁻¹]
3 | B3 | 1.6 | 0.00013 | 82000

Molecular target: T1, human-CD40 monomer
Assay: SPR 2 pt screen, Ab on protein A
Description: The VH sequences were formatted in the context of an IgG1.3f isotype. The Vκ sequences were formatted as a full light chain with a common CL sequence. All 55 combinations of these humanized HC and LC constructs, as well as the chimeric Y1238 molecule were expressed as 3 ml supernatants for binding analysis by SPR. Each of the 56 supernatants, as well as a purified Y1238-chimeric IgG1 antibody, was captured on a protein A sensor chip and tested for binding to two concentrations (i.e., 200 nM and 1000 nM) of hCD40-monomer using BIAcore™ SPR in a screening assay. All antibodies, except for those containing hz-HC3, captured at high levels (>300 RU) using a 100-fold dilution of the expression supernatant, indicating a high antibody titer in the supernatant except for the hz-HC3 samples. The kinetic data for the two concentrations of hCD40-monomer were fit to a 1:1 Langmuir model, to yield estimates of the kinetic and affinity values for these interactions, and for comparison of the different molecules. […] Also, for a given heavy chain, the antibodies with light chains hz-LC1 or hz-LC2 had higher CD40 affinity than those with hz-LC3, hz-LC4 or hz-LC5.

Row | Binder | Kd [nM] | koff [s⁻¹] | kon [M⁻¹ s⁻¹]
4 | B4 | 9.2 | 0.00037 | 40000
5 | B5 | 12 | 0.00048 | 39000
6 | B6 | 5.4 | 0.0002 | 36000
7 | B7 | 5.1 | 0.0002 | 39000
8 | B8 | 2.8 | 0.00011 | 37000
9 | B9 | 6.7 | 0.00025 | 37000
10 | B10 | 8.2 | 0.00032 | 39000
11 | B11 | 4.4 | 0.00017 | 38000
12 | B12 | 8.8 | 0.00032 | 36000
13 | B13 | 15 | 0.00056 | 38000
14 | B14 | 16 | 0.00061 | 39000
15 | B15 | 14 | 0.00055 | 39000
16 | B16 | 18 | 0.00067 | 37000
17 | B17 | 7.6 | 0.00029 | 39000
18 | B18 | 7.5 | 0.0003 | 40000
19 | B19 | 8.5 | 0.00033 | 39000
20 | B20 | 9.6 | 0.00038 | 39000
21 | B21 | 15 | 0.00056 | 37000
22 | B22 | 6.5 | 0.00026 | 39000
23 | B23 | 3.7 | 0.00014 | 39000
24 | B24 | 6.5 | 0.00023 | 35000
